Reference: the supplement of paper PMC12764529
± gives the half width of the 95% confidence interval.

Experiments:
[1] = folding stability dG unfold from chymotrypsin proteolysis; higher = more stable
How it was run: (§1)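 Designed mini-proteins (under 80 residues, no cysteine) in a PA-tagged cDNA display construct were digested with trypsin and chymotrypsin. Each protease was used at 11 concentrations (threefold dilutions) plus a no-protease condition, followed by sequencing. K50 was inferred by Bayesian fitting of sequencing counts, and unfolding free energy was derived against a sequence-predicted unfolded-state K50 and a shared folded-state K50, per protease or combined. Only designs with AlphaFold2 dimer inter-PAE above 15 were kept.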

[2] = folding stability dG unfold from trypsin proteolysis; higher = more stable
How it was run: as §1

[3] = folding stability dG unfold (combined trypsin and chymotrypsin); higher = more stable
How it was run: as §1

Sequence	folding stability dG unfold [1] [kcal/mol]	folding stability dG unfold [2] [kcal/mol]	folding stability dG unfold [3] [kcal/mol]
SAGGSAGGSEKEIEVNGKKITIEKNEDGSYKLIIEVNGKKYEITLSLEELKKKNLTIEELLKKSAGGSAGGS [r20_90_TrROS_Hall]	3.61 ± 0.13	1.92 ± 0.072	3.26 ± 0.16
MAIVHIDFSFPDGGPTLSFEIPVPNLGPAGEEEILERASELTGISREVIRKNTEIEPIPETGDYKVTINVSS [r1_285_JUSTAS]	1.14 ± 0.033	1.46 ± 0.033	1.36 ± 0.069
SAGGSAGGSAGGSPYVQIRFEIPVWKFKPGGWEPVNPMPIPIWVPADDPPAAKDIAEEISAGGSAGGSAGGS [r4_153_TrROS]	0.839 ± 0.18	0.724 ± 0.07	0.849 ± 0.09
SAGGKEKYKVIEIKVKPEDVTAEELQAELEKKGYEIYVDGKKIKPGESVEDLLAKNPNATLTIVVKESAGGS [r8_38_TrROS_Hall]	1.94 ± 0.11	0.925 ± 0.17	1.71 ± 0.2
SSSPLPSPVTLPNGTVVYYFPDTGLVLTLDPKTGTGTVTYVTTDPQGNPTFFPSTVTFDPPTGKVVEVVASA [r9_122_JUSTAS]	2.77 ± 0.033	0.904 ± 0.058	2.39 ± 0.079
SAGGKLTITVKVNENGELIATVEITEVVENAKPGDVLTVKAKVVNPKTKETKEIEAKIKVENGKLVLESAGG [r13_208_TrROS_Hall]	2.33 ± 0.069	2.1 ± 0.077	2.16 ± 0.12
SAGGSAGGSAGKTYEIVEYNPETKKFLIRFEDGSTKEVEVKPGDKIEVPPGAKVEIVPLDSAGGSAGGSAGG [r17_295_TrROS_Hall]	1.76 ± 0.1	1.94 ± 0.069	1.88 ± 0.14
SGITPEQIEELAREIADLFPDVEIEIYPGLEPSIFDGPGAVAVIEREEGRGYITIYFPETGEPLVIEVPDSA [r9_1062_TrMRF]	1.3 ± 0.033	1.5 ± 0.079	1.37 ± 0.2
SAGGSAGGSAGPVLKIKVEVKLEKKYDKNGKLVEEKLEVKVEIELLEPAPPASDEELKKKSAGGSAGGSAGG [r11_131_TrROS_Hall]	1.69 ± 0.2	0.29 ± 0.24	1.6 ± 0.39
SAGGSAGGSAGGSMLVTEVSISPLPNGTVKVTTKLVLEPPDGVSVLEEESSVVSPEELSSAGGSAGGSAGGS [r4_389_JUSTAS]	0.687 ± 0.041	0.11 ± 0.028	0.484 ± 0.099
SAGVIPESLIEKVETEEYPGGITRSTYTYPDGVTVTVEETKVPGTDGITRKITVYPPTNTTTETTVTDPSAG [r5_802_JUSTAS]	0.348 ± 0.16	0.29 ± 0.098	0.44 ± 0.12
SKVKVYIIKKDKVIPEIELDVSSVEEAVEKVLEYISKLPKNTPYLVRIEVEKYDPATGKKSYGTLLLPVGSA [r9_245_TrMRF]	4.53 ± 0.095	2.76 ± 0.048	4.05 ± 0.1
SAGKSVKLSISVNPDNNSITITLEVEFKPDEKINIPAKFYLKDKEFNANYSVTKTPDGKAIATFTIELDSAG [r5_596_TrMRF]	4.57 ± 0.23	2.67 ± 0.27	3.63 ± 0.38
SAGGSAGGSNIKIPSLQIYPNPNGYYISIKIEHEHPDPDGKKHEVEMSFMIWVPPGESLEDLFSAGGSAGGS [r12_889_TrROS]	2.43 ± 0.049	2.1 ± 0.078	2.29 ± 0.12
SAGGSAGGNIDPDDITEVEEETYNFPNGWHIKIDYFRVPDDGQPIMKMEIEPMPPVKPDPNDKKSAGGSAGG [r6_758_TrROS]	1.23 ± 0.14	-0.1 ± 0.11	0.627 ± 0.25
SAGGSAGGSAKIRVGGEEIELPPGKPVMFRFPENGYMIKITIKPDPKENKWKIDELKVYPMDSAGGSAGGSA [r18_222_TrROS]	1.83 ± 0.16	1.13 ± 0.089	1.46 ± 0.19
SAGGSANWVKVEVKIPGGLKIEVWVPPGMSKEENQEKAQEMADEMAQMLRQMRENRKEGKPPTIDFSAGGSA [r15_704_TrROS]	2.02 ± 0.065	0.819 ± 0.08	1.66 ± 0.1
